Results reported in patent US7314754B2, “Polynucleotide encoding the hOT7T175 G protein coupled receptor” (Takeda Pharmaceutical Company Limited, priority 1998, dated 2008).
No end group written: not given here.

Target: T1, rOT7T175 (Rattus norvegicus, UniProt Q924U1)
T1 construct: expressed in transfected cells
Assay: Measurement of intracellular Ca ion concentration-increasing activity using FLIPR
Format: cell-based
Details: rOT7T175-23 cells; final peptide concentration 1×10^−5 M to 1×10^−10 M
Experimental: The stable expression cell line rOT7T175 was obtained by transduction of expression plasmid pAK-rOT175 for animal cell into CHO/dhfr^− cells, using CellPhect Transfection Kit (Amersham Pharmacia Biotech, Inc.). First, […] of Buffer A (attached to CellPhect Transfection Kit) was added to […] of plasmid DNA dissolved in […] of distilled water followed by stirring. After the mixture was settled for 10 minutes, […] of Buffer B (attached to CellPhect Transfection Kit) was added to the mixture, which was vigorously stirred to form liposomes containing the DNA. Then 4×10^5 CHO/dhfr^− cells (obtained from ATCC) were inoculated on a 60 mm Petri dish. After culturing the cells in Ham's F-12 medium (Nissui Seiyaku Co., Ltd.) supplemented with 10% fetal bovine serum (BIO WHITTAKER, Inc.) at 37° C. for 2 days in 5% carbon dioxide gas, […] of the liposomes were dropwise added to the cells in the Petri dish. After culturing the cells at 37° C. for 6 hours in 5% carbon dioxide gas, the cells were washed twice with serum-free Ham's F-12 medium and 3 ml of 15% glycerol was added to the cells in the Petri dish followed by treatment for 2 minutes. […]
The intracellular Ca ion concentration-increasing activity of the synthetic peptides obtained in (1-1) described above in rOT7T175-23 and ETA24was determined, using FLIPR (Molecular Devices, Inc.). […]

T1 sequence (Q924U1 whole entry R383V): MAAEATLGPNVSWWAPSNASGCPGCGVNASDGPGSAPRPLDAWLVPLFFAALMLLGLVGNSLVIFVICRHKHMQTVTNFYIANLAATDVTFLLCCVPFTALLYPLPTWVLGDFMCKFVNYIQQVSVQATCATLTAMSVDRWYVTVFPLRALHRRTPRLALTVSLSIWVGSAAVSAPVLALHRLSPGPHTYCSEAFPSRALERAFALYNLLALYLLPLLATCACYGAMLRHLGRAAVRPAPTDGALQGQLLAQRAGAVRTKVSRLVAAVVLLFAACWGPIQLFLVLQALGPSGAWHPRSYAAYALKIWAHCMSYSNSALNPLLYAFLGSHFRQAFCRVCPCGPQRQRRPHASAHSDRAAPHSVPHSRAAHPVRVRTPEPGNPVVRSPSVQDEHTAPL

- intracellular Ca ion concentration-increasing activity, comparison of dose response curves (FIG. 9): highest activity
Substance: PEPTIDE (40-54): C-terminal peptide of PEPTIDE (1-54), residues 40-54, synthesized on p-methyl BHA resin (KDLPNYNWNSFGLRF-NH2)
